Assay results as given in patent US20210087296A1 (published 2021).

The binders below were run against matrix metalloproteinase-14 catalytic domain (cdMMP-14) (UniProt P50281 114-287, biotinylated with EZ-Link Sulfo-NHS-LC-Biotin for ELISA; amine-coupled to CM5 chip for SPR) (assay: ELISA).

| EC50 [nM] | Binder |
| --- | --- |
| > 1000 | Fab R2C14 (Fab, V domains shown) VH: EVQLVESGGGLVQPGGSLRLSCAASGFNIYSSSIHWVRQAPGKGLEWVASIYSYSGYTYYADSVKGRFTISADTSKNTAYLQMNSLRAEDTAVYYCARVSNRYNRSSASIAGLQLFRPYGMDYWGQGTLVTVSS VL: DIQMTQSPSSLSASVGDRVTITCRASQSVSSAVAWYQQKPGKAPKLLIYSASSLYSGVPSRFSGSRSGTDFTLTISSLQPEDFATYYCQQSSYSLITFGQGTKVEIKR |
| > 1000 | Fab R3C8 (Fab, V domains shown) VH: EVQLVESGGGLVQPGGSLRLSCAASGFNFSSSSIHWVRQAPGKGLEWVASIYPSYSYTYYADSVKGRFTISADTSKNTAYLQMNSLRAEDTAVYYCARHCLLRSRRCEMSTKTRELNVYRYAMDYWGQGTLVTVSS VL: DIQMTQSPSSLSASVGDRVTITCRASQSVSSAVAWYQQKPGKAPKLLIYSASSLYSGVPSRFSGSRSGTDFTLTISSLQPEDFATYYCQQWPVGSSYPITFGQGTKVEIKR |
| 4 | Fab 3A2 (Fab, V domains shown) VH: EVQLVESGGGLVQPGGSLRLSCAASGFNLSSSSMHWVRQAPGKGLEWVASIYPSYSYTYYADSVKGRFTISADTSKNTAYLQMNSLRAEDTAVYYCARVKLQKDKSHQWIRNLVATPYGRYVMDYWGQGTLVTVSS VL: DIQMTQSPSSLSASVGDRVTITCRASQSVSSAVAWYQQKPGKAPKLLIYSASSLYSGVPSRFSGSRSGTDFTLTISSLQPEDFATYYCQQYGYPITFGQGTKVEIKR |
